According to patent US20150045310A1 (TRUSTEES OF PRINCETON UNIVERSITY, published 2015):
Like-named read-outs stand apart in the source and are kept apart here. Bridges are numbered along the chain shown (N, C = ends). Where no end group is shown, it is not given here. [ ]: non-standard residue; d: D form. eCPX = enhanced circularly permuted OmpX display scaffold; S5 = C=CCCC[C@](C)(N)C(=O)O; linker = not defined here

Legend:
[1] = biological target: T1, Mcl-1 (biotinylated pro-survival Bcl-2 family protein) (UniProt Q07820 171-327, limits assumed, biotinylated (co-expressed E. coli biotin ligase BirA)); assay: flow cytometry of E. coli displaying the peptide on eCPX, biotinylated target + streptavidin-PE; apparent Kd
T1 construct: In the functional rows the target is the endogenous Mcl-1 of the human cancer cell lines
T1 sequence (Q07820 171-327 limits assumed): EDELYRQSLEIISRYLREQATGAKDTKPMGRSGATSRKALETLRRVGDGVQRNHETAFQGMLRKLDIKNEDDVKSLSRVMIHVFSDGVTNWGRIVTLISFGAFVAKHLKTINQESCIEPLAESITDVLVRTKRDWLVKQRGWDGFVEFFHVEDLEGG
Procedure: (§1) All binding assays were performed using MC1061 strain. Briefly, a 5 mL culture of a library sample or individual variant was grown to OD₆₀₀˜0.6, and induced with arabinose (0.2%) at RT for 2.5 hours. Cells were pelleted (1 mL culture, 6000 rpm, 5 min) and resuspended in 1 mL PBS. A portion of the cell suspension (50 μL) was mixed with the desired concentration of pro-survival protein to a total volume of 500 μL. The mixture was allowed to rotate at room temperature for 1 hour for equilibrium binding. The cells were pelleted again (6000 rpm, 20 min), resuspended with 100 μL of 50 nM streptavidin-phycoerythrin (SAPE), and incubated on ice in the dark for 30 min. After a final centrifugation, the cell pellets were stored on ice and resuspended in 2 mL of PBS for flow cytometry measurements. A Partec CyFlow ML Flow Cytometer equipped with a 488 nm laser was used to analyze the cells. A FACSVantage SE cell sorter was used for cell sorting in single cell mode.
(§2) A two parameter model was used to extract apparent binding affinity (Kd) from flow cytometry binding experiments.

[2] = biological target: T2, Bcl-xL (biotinylated pro-survival Bcl-2 family protein) (UniProt Q07817 1-209, biotinylated (co-expressed E. coli biotin ligase BirA)); assay: as above
T2 sequence (Q07817 1-209): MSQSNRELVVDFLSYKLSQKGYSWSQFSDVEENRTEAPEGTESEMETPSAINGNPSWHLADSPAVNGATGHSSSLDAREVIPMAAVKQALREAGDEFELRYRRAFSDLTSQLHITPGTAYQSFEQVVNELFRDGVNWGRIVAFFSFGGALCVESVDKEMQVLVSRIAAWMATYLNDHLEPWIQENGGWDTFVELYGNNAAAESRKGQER
Procedure: as §1, §2

[3] = biological target: Bcl-2 (biotinylated pro-survival Bcl-2 family protein) (UniProt P10415 1-217, limits assumed, biotinylated (co-expressed E. coli biotin ligase BirA)); assay: as above
Chain of Bcl-2 (biotinylated pro-survival Bcl-2 family protein) (P10415 1-217 limits assumed): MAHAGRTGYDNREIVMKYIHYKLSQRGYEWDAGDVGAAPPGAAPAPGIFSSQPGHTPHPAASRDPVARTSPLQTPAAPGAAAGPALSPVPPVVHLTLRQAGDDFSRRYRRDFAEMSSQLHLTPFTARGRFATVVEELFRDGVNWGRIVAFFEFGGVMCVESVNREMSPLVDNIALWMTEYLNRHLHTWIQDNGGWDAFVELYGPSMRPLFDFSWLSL
Procedure: as §1, §2

[4] = biological target: T3, Bcl-w (biotinylated pro-survival Bcl-2 family protein) (UniProt Q92843 1-164, limits assumed, biotinylated (co-expressed E. coli biotin ligase BirA)); assay: as above
T3 sequence (looked up): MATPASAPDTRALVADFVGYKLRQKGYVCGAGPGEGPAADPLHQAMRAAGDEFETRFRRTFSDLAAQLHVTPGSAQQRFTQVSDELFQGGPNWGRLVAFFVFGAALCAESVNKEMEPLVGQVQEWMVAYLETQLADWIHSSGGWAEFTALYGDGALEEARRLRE
Procedure: as §1, §2

[5] = biological target: T2, Bcl-xL (biotinylated pro-survival Bcl-2 …); assay: as above; remark: listed apart in the source
Procedure: as §1, §2

[6] = biological target: T1, Mcl-1 (biotinylated pro-survival Bcl-2 …); assay: as above; remark: listed apart in the source
Procedure: as §1, §2

[7] = biological target: T1, Mcl-1 (biotinylated pro-survival Bcl-2 …); assay: apparent Kd, bacterial surface display and flow cytometry
Procedure: as §1, §2

[8] = biological target: T2, Bcl-xL (biotinylated pro-survival Bcl-2 …); assay: as above
Procedure: as §1, §2

[9] = biological target: T1, Mcl-1 (biotinylated pro-survival Bcl-2 …); assay: cell-based or functional assay
[10] = biological target: T1, Mcl-1 (biotinylated pro-survival Bcl-2 …); assay: cell-based or functional assay; remark: listed apart in the source
[11] = biological target: T1, Mcl-1 (biotinylated pro-survival Bcl-2 …); assay: cell-based or functional assay; remark: listed apart in the source
[12] = biological target: T1, Mcl-1 (biotinylated pro-survival Bcl-2 …); assay: cell-based or functional assay; remark: listed apart in the source
[13] = biological target: T1, Mcl-1 (biotinylated pro-survival Bcl-2 …); assay: cell-based or functional assay; remark: listed apart in the source

B1: Bim BH3 14-mer variant M2-3 displayed on eCPX (peptide)
peptide: WMAQILRRIGDEVN-{linker-eCPX}
modifications: reading uncertain; also: printed as Trp-Met-Ala-Gln-Ile-Leu-Arg-Arg-Ile-Gly-Asp-Glu-Val-Asn
notes: Clone selected against Mcl-1; not shown: eCPX display scaffold and its linker, fused C-terminal to the peptide
Question: How did the Kd [1] turn out when B1 was run?
Answer: 0.0115 µM

B2: wild-type Bim BH3 14-mer peptide (residues 147-160) displayed on eCPX (peptide)
peptide: WIAQELRRIGDEFN-{linker-eCPX}
modifications: reading uncertain
notes: also called WT; Bim WT; not shown: eCPX (enhanced circularly permuted OmpX) display scaffold and its linker, fused C-terminal to the peptide
Question: How did the Kd [2] turn out when B2 was run?
Answer: 0.251 µM

Question: What about the Kd [1] of the same binder?
Answer: 0.0377 µM

Question: And the Kd [3]?
Answer: 0.0979 µM

Question: And the Kd [4]?
Answer: 0.594 µM

Question: What about the Kd [5] of the same binder?
Answer: 0.251 µM

Question: And the Kd [6]?
Answer: 0.0377 µM

B3: Bim BH3 14-mer E151L displayed on eCPX (peptide)
peptide: WIAQLLRRIGDEFN
notes: also called Bim E151L; pSZ55; not shown: eCPX display scaffold and the linker to it
Question: B3 was tested. Which “fold increase in apparent affinity against wild-type Bim 14-mer” value (from here on “fold increase in apparent affinity”) [7] did it give?
Answer: 2 fold

B4: Bim BH3 14-mer E151Q (pseudo-wild-type) displayed on eCPX (peptide)
peptide: WIAQQLRRIGDEFN
modifications: not fully specified
notes: also called pseudo-wild-type Bim; Bim E151Q; not shown: eCPX display scaffold and the linker to it
Question: Which results are given for B4?
Answer: fold increase in apparent affinity against wild-type Bim 14-mer [8]: 5 fold; Kd [3]: 0.175 µM; Kd [4]: 0.642 µM; Kd [5]: 0.0474 µM; Kd [6]: 0.0452 µM

B5: Bim BH3 14-mer E151I displayed on eCPX (peptide)
peptide: WIAQILRRIGDEFN
notes: also called E1511; Bim E151I; not shown: eCPX display scaffold and the linker to it
Question: B5 was tested. Which “fold increase in apparent affinity” value [7] did it give?
Answer: 2 fold

B6: Bim BH3 14-mer variant M2-1 displayed on eCPX (peptide)
peptide: WIAQLLRRIGDEVN-{linker-eCPX}
modifications: reading uncertain; also: printed as Trp-Ile-Ala-Gln-Leu-Leu-Arg-Arg-Ile-Gly-Asp-Glu-Val-Asn
notes: as for B1
Question: With B6 as the binder, how does the Kd [1] read?
Answer: 0.0103 µM

B7: Bim BH3 14-mer variant M2-2 displayed on eCPX (peptide)
peptide: WVAQLLRRIGDEVN-{linker-eCPX}
modifications: reading uncertain; also: printed as Trp-Val-Ala-Gln-Leu-Leu-Arg-Arg-Ile-Gly-Asp-Glu-Val-Asn
notes: as for B1
Question: Which results are given for B7?
Answer: fold increase in apparent affinity against wild-type Bim 14-mer [7]: 6 fold; Kd [1]: 0.0058 µM; Kd [5]: 2.8 µM; Kd [6]: 0.0058 µM

B8: Bim BH3 14-mer variant X2-8 displayed on eCPX (peptide)
peptide: WLAQLLRRYGDEFN
modifications: also: displayed as fusion to eCPX scaffold (letters not given here)
notes: Clone selected against Bcl-xL; not shown: eCPX display scaffold and the linker to it
Question: B8 was tested. Which Kd [2] did it give?
Answer: 0.0178 µM

Question: What about the Kd [3] of the same binder?
Answer: 2.35 µM

Question: What about the Kd [4] of the same binder?
Answer: 0.946 µM

Question: What about the Kd [5] of the same binder?
Answer: 0.0178 µM

Question: What about the Kd [6] of the same binder?
Answer: 2.58 µM

B9: Bim BH3 14-mer variant M2-4 displayed on eCPX (peptide)
peptide: WLAQLLRRIGDEIN-{linker-eCPX}
modifications: reading uncertain; also: printed as Trp-Leu-Ala-Gln-Leu-Leu-Arg-Arg-Ile-Gly-Asp-Glu-Ile-Asn
notes: as for B1
Question: Which results are given for B9?
Answer: Kd [1]: 0.00985 µM; Kd [3]: 0.0937 µM; Kd [4]: 0.542 µM; Kd [5]: 0.333 µM; Kd [6]: 0.00985 µM

B10: stapled M2-4 peptide (peptide)
peptide: WLAQLLR[S5]IGD[S5]IN-NH2
modifications: staple 8-12; N-terminus assumed
SMILES: CC[C@H](C)[C@@H]1NC(=O)[C@@](C)(NC(=O)[C@H](CCCNC(=N)N)NC(=O)[C@H](CC(C)C)NC(=O)[C@H](CC(C)C)NC(=O)[C@H](CCC(N)=O)NC(=O)[C@H](C)NC(=O)[C@H](CC(C)C)NC(=O)[C@@H](N)Cc2c[nH]c3ccccc23)CCCC=CCCC[C@@](C)(C(=O)N[C@H](C(=O)N[C@@H](CC(N)=O)C(N)=O)[C@@H](C)CC)NC(=O)[C@H](CC(=O)O)NC(=O)CNC1=O
Question: Which “IC50 (µM), MTT cytotoxicity assay, MCF7 cells” value [9] does the source give for B10 here?
Answer: 5.7 µM

Question: What about the “IC50 (µM), MTT cytotoxicity assay, PC3 cells” value [10] of the same binder?
Answer: 1.4 µM

Question: And the “IC50 (µM), cytotoxicity, HeLa cells” value [11]?
Answer: 1.04 µM

Question: And the “IC50 (µM), cytotoxicity, MCF7 cells” value [11]?
Answer: 5.72 µM

Question: And the “IC50 (µM), cytotoxicity, MDA231 cells” value [11]?
Answer: 4.39 µM

Question: What about the “IC50 (µM), cytotoxicity, PC3 cells” value [11] of the same binder?
Answer: 1.36 µM

Question: What about the “IC50 (µM), MTT cytotoxicity assay, MDA231 cells” value [12] of the same binder?
Answer: 4.4 µM

Question: What about the “IC50 (µM), MTT cytotoxicity assay, HeLa cells” value [13] of the same binder?
Answer: 1 µM

B11: stapled M2-2 peptide (peptide)
peptide: WVAQLLR[S5]IGD[S5]VN-NH2
modifications: staple 8-12; N-terminus assumed
SMILES: CC[C@H](C)[C@@H]1NC(=O)[C@@](C)(NC(=O)[C@H](CCCNC(=N)N)NC(=O)[C@H](CC(C)C)NC(=O)[C@H](CC(C)C)NC(=O)[C@H](CCC(N)=O)NC(=O)[C@H](C)NC(=O)[C@@H](NC(=O)[C@@H](N)Cc2c[nH]c3ccccc23)C(C)C)CCCC=CCCC[C@@](C)(C(=O)N[C@H](C(=O)N[C@@H](CC(N)=O)C(N)=O)C(C)C)NC(=O)[C@H](CC(=O)O)NC(=O)CNC1=O
Question: Which “IC50 (µM), MTT cytotoxicity assay, MCF7 cells” value [9] does the source give for B11 here?
Answer: 5.7 µM

Question: What about the “IC50 (µM), MTT cytotoxicity assay, PC3 cells” value [10] of the same binder?
Answer: 4.7 µM

Question: And the “IC50 (µM), MTT cytotoxicity assay, MDA231 cells” value [12]?
Answer: 3.7 µM

Question: And the “IC50 (µM), MTT cytotoxicity assay, HeLa cells” value [13]?
Answer: 6.1 µM

B12: Bim BH3 14-mer variant X2-3 displayed on eCPX (peptide)
peptide: WVAQWLRRWGDEFN
modifications: also: displayed as fusion to eCPX scaffold (letters not given here)
notes: as for B8
Question: For B12, which “fold increase in apparent affinity” value [8] is on record?
Answer: 25 fold

Question: And the Kd [2]?
Answer: 0.00928 µM

Question: And the Kd [3]?
Answer: 0.929 µM

Question: And the Kd [4]?
Answer: 5.89 µM

Question: What about the Kd [5] of the same binder?
Answer: 0.00928 µM

Question: What about the Kd [6] of the same binder?
Answer: 1.3 µM

B13: Bim BH3 14-mer variant X2-10 displayed on eCPX (peptide)
peptide: WVAQTLRRWGDEFN-{linker-eCPX}
modifications: reading uncertain; also: printed as Trp-Val-Ala-Gln-Thr-Leu-Arg-Arg-Trp-Gly-Asp-Glu-Phe-Asn
notes: Clone selected against Bcl-xL; not shown: eCPX display scaffold and its linker, fused C-terminal to the peptide
Question: B13 was tested. Which Kd [2] did it give?
Answer: 0.017 µM
